Where a chain is given by its changes, count along the chain named. Where “and” joins values, the source holds several entries; their conditions need not be identical. Equal entries are not always repeated.

One may read the EC50 as the concentration giving half of the maximal effect. Low values mean higher potency in that assay, high ones lower potency in that assay. Broadly, the Kd is the concentration at which binding is half-saturated. High values mean a looser complex, low ones a tighter complex. In general, koff refers to the first-order rate constant of dissociation. Low readings indicate slow dissociation, high ones fast dissociation. What is called kon is the rate constant with which the complex forms. A lower kon goes with slower complex formation.

Assay [1] concerns the target T1, human TNFR2 on the cell membrane (human, UniProt P20333 23-461).
T1 construct: whole, on cells; One molecule for all cell formats; also called TNFR2-CHO cells; CHO-TNFR2
T1 sequence (looked up): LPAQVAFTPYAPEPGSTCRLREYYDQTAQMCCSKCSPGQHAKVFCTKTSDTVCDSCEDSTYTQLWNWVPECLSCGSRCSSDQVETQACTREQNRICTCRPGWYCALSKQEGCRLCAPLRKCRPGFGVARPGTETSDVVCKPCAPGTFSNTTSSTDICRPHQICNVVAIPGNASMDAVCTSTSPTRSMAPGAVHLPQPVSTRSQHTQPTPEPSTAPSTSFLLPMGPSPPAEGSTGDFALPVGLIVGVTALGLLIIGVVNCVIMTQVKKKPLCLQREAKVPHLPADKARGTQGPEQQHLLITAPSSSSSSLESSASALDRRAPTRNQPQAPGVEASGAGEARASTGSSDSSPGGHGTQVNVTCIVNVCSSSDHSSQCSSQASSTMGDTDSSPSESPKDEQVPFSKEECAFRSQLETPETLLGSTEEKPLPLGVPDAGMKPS
Description: flow cytometry on CHO-TNFR2 cells. In outline: (§1)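 Flow cytometry on CHO cells stably overexpressing human TNFR2, made by pcDNA3.4-TNFR2 transfection, drug selection and single-clone sorting. Cells in 96-deep-well plates were incubated with serially diluted antibodies, washed and stained with a fluorescent anti-IgG secondary antibody. Samples were read on a Beckman CytoFLEX. EC50 is reported from the dilution series.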

In assay [2] the target is T2, TNFR2-His (Sino Biological, 10417-H08H, NP_001057.1 Met1-Asp257, with multi-histidine tag expressed on … (human, UniProt P20333 23-257)).
T2 construct: range 1-257; Bought protein; also called recombinant human TNFR2 protein; TNFR2-His antigen; not shown: C-terminal multi-histidine tag
T2 sequence (looked up): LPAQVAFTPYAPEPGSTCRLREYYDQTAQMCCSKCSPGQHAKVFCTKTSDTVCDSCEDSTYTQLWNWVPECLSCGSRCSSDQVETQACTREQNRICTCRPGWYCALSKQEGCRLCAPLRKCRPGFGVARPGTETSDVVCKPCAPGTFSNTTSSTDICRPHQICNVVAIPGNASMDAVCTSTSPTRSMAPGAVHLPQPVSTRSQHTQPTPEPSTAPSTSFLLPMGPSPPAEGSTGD
The assay is described as follows: BLI, antibody captured on AHC probe, TNFR2 in solution. In outline: (§2)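 Kon, koff and Kd were derived from kinetic association measurements by bio-layer interferometry on an Octet in Basic Kinetics mode. Antibody-capture sensors held antibodies at 50 nM in Q buffer (10 mM PBS pH 7.4, 0.02% Tween 20, 0.2% BSA). These sensors were then placed in recombinant human TNFR2, diluted 2-fold in Q buffer from a top concentration of 100 nM.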

Assay [3] has as its target T2, TNFR2-His (Sino Biological, 10417-H08H, …). The assay is described as follows: ELISA, plate coated with TNFR2-His (second test). A digest of the protocol:
(§3)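 ELISA on plates coated with recombinant human TNFR2 carrying a C-terminal His tag, then blocked. Serially diluted antibodies were incubated, followed by an enzyme-labelled anti-IgG secondary antibody. Plates were developed with TMB and read on a microplate reader. EC50 is reported from the dilution series.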
Background: In an ELISA, binding on a coated surface is turned into a signal by an enzyme label.

The target is the same in assay [4]. Description: ELISA, coated TNFR2-His. In outline:
as §3

The target in assay [5] is T1, human TNFR2 on the cell membrane. Description: flow cytometry, CHO-TNFR2 cells. In outline:
as §1
(In general: In flow cytometry, cells or beads pass a laser one at a time.)

The target is the same in assay [6]. The assay is described as follows: flow cytometry on CHO-TNFR2 cells. A digest of the protocol: as §1
This is another data set of the same source.

Assay [7] deals with T2, TNFR2-His (Sino Biological, 10417-H08H, …). The assay is described as follows: ELISA, plate coated with TNFR2-His. In outline: as §3
Assay [8] shares this target. The assay is described as follows: BLI, antibody captured on AHC probe, TNFR2-His in solution. A digest of the protocol: as §2
Assay [9] deals with T1, human TNFR2 on the cell membrane. Description: flow cytometry on CHO-TNFR2 cells. A digest of the protocol: as §1
The source holds these as a separate data set.

Assay [10] has as its target T2, TNFR2-His (Sino Biological, 10417-H08H, …). The assay is described as follows: ELISA, plate coated with TNFR2-His. A digest of the protocol: as §3
This is another data set of the same source.

Assay [11] shares this target. Description: BLI, antibody captured on AHC probe, TNFR2-His in solution. A digest of the protocol:
as §2
This is another data set of the same source. Background: BLI is a label-free optical method that tracks binding on a fibre tip over time.

B1: 12E12-huVH6 + huVL2(P08937) (antibody, V domains shown)
VH: QVQLVQSGAEVKKPGASVKVSCKASGYTITDFYIHWVRQAPGQGLEWIGRVDPEDGNTEYAPNFQDRATMTTDTSTSTAYLELSSLRSEDTAVYYCSTWDGFSYFDYWGQGTTVTVSS
VL: QAVVTQEPSLTVSPGGTVTLTCRSSTGPVTTNNYANWVQQKPGQAFRGLIGGTNDRAPGVPARFSGSLLGGKAALTLSGAQPEDEAEYYCALWYRNHWVFGGGTKLTVL
notes: Humanized 12E12
As for B1, the EC50 in assay [1] was 0.0096 µg/mL and 0.064 nM. In addition, in assay [2], the Kd is 5.28 nM, the koff came to 0.00449 s⁻¹ and the kon amounted to 849000 M⁻¹ s⁻¹. For the same molecule, the EC50 in assay [3] was 0.0322 µg/mL and 0.216 nM.

B2: 12E12-huVH8 + huVL2(P08939) (antibody, V domains shown)
VH: EVQLVQSGAEVKKPGATVKISCKVSGYTITDFYIHWVQQAPGKGLEWMGRVDPEDGNTEYAPNFQDRVTITADTSTDTAYMELSSLRSEDTAVYYCSTWDGFSYFDYWGQGTTVTVSS
VL: B1 VL
notes: Humanized 12E12
As for B2, the EC50 in assay [1] is 0.0158 µg/mL and 0.106 nM. In assay [2], this molecule showed a Kd of 3.92 nM, an off-rate constant (koff) of 0.00442 s⁻¹ and a kon of 1.13e+06 M⁻¹ s⁻¹. Moreover, the EC50 in assay [3] is 0.0284 µg/mL and 0.19 nM.

B3: 12E12-huVH6 + huVL4(P08940) (antibody, V domains shown)
VH: B1 VH
VL: EAVVTQSPATLSLSPGERATLSCRSSTGPVTTNNYANWVQQKPGQAFRGLIGGTNDRAPGIPARFSGSGSGTDTTLTISSLQPEDFAVYYCALWYRNHWVFGGGTKLEIK
notes: Humanized 12E12
For B3, the EC50 in assay [1] was 0.011 µg/mL and 0.073 nM. In assay [2], this molecule registered a Kd of 4.03 nM, a dissociation rate constant (koff) of 0.0034 s⁻¹ and a kon of 844000 M⁻¹ s⁻¹. The concentration for a half-maximal effect (EC50) in [3] was 0.0279 µg/mL and 0.187 nM.

B4: 11G2huVH4 + huVL2(P07269) (antibody, V domains shown)
VH: QVQLVQSGAEVKKPGASVKVSCKASGYTFITYDINWVRQAPGQGLEWIGWIYPRDGNTQYAQKFQGRVTMTTDTSTSTAYMELRSLRSDDTAVYYCARGDRDYGYFDVWGQGTTVTVSS
VL: DIQMTQSPSSLSASVGDRVTITCRASQDISNYLNWYQQKPGKAPKLLIYFKSKLHSGVPSRFSGSGSGTDFTLTISSLQPEDFATYYCQQGNTLPLTFGGGTKLEIK
notes: Humanized 11G2
For the molecule B4, the EC50 in assay [4] worked out at 0.364 nM; in assay [5] it was 0.183 nM; in [6] it was 0.0273 µg/mL; in assay [7], 0.0544 µg/mL. Also, binding in assay [8] was put at a Kd of 13.5 nM. The koff in assay [8] is 0.00379 s⁻¹. In assay [8], this molecule displayed an on-rate (kon) of 281000 M⁻¹ s⁻¹.

B5: 11G2huVH5 + huVL3(P07275) (antibody, V domains shown)
VH: B4 VH with P41T, T72R, D73N, T76I, R84S, D89E
VL: B4 VL with R24Q, H55E, S56T, L73F, F83I
notes: Humanized 11G2
On to B5, for which the EC50 in [4] was 0.149 nM; in assay [5] it was 0.056 nM; in assay [6], 0.0084 µg/mL; in assay [7] it was 0.0222 µg/mL. For the same molecule, the affinity in [8], expressed as Kd, was 14.1 nM. This molecule gave a koff in assay [8] of 0.00302 s⁻¹. For the same molecule, in [8], the kon came to 213000 M⁻¹ s⁻¹.

B6: 33C12huVH2 + huVL2(P07301) (antibody, V domains shown)
VH: EVQLVESGGGLVKPGGSLRLSCAASGFTFSDYTMSWVRQAPGKGLEWVATISTGGSYTYYPDSVKGRFTISRDNAKNTLYLQMSSLRAEDTAVYYCARDGGYDGDYFDYWGQGTTVTVSS
VL: ENVLTQSPATLSLSPGERATLSCRASSSVSSSYLHWYQQKPGQAPRLWIYRTSNLASGVPARFSGSGSGTDFTLTISRLEPEDFAVYYCQQYSGYPLTFGGGTKLEIK
notes: Humanized 33C12
For the molecule B6, the EC50 in assay [4] came out at 0.886 nM; in [5], 0.873 nM; in [9], 0.13 µg/mL; in [10] it was 0.132 µg/mL. In addition, in [11], binding was put at a Kd of 17.8 nM. Also, the koff in assay [11] was found to be 0.00279 s⁻¹. For the same molecule, the kon in assay [11] is 157000 M⁻¹ s⁻¹.

B7: 33C12huVH1 + huVL1(P07298) (antibody, V domains shown)
VH: B6 VH with E1D, A97T
VL: B6 VL with L21M, F72Y, L79V
notes: Humanized 33C12
On to B7, for which the EC50 in assay [4] was 0.433 nM; in assay [5], 0.448 nM; in assay [9], 0.0669 µg/mL; in assay [10] it was 0.0646 µg/mL. In [11], this molecule displayed a Kd of 17.7 nM. In assay [11], this molecule showed a koff of 0.00171 s⁻¹. Also, the kon in [11] worked out at 96400 M⁻¹ s⁻¹.

B8: 33C12huVH3 + huVL3(P07304) (antibody, V domains shown)
VH: B6 VH with P61A, T78S, S84N
VL: B6 VL with N2I, W48L, S57T, V59I, A61D
notes: Humanized 33C12
For B8, the EC50 in [4] stood at 0.354 nM; in assay [5], 1.08 nM; in assay [9], 0.161 µg/mL; in assay [10] it was 0.0528 µg/mL. In addition, the affinity in [11], expressed as Kd, was 48.7 nM. Further, the off-rate (koff) in assay [11] is 0.00368 s⁻¹. For the same molecule, in [11], the kon came out at 75600 M⁻¹ s⁻¹.

B9: 33C12huVH3 + huVL2(P07302) (antibody, V domains shown)
VH: B6 VH with P61A, T78S, S84N
VL: B6 VL
notes: Humanized 33C12
With B9, the concentration giving a half-maximal response (EC50) in assay [4] amounted to 2.03 nM; in [5], 3.01 nM; in assay [9] it was 0.449 µg/mL; in assay [10] it was 0.303 µg/mL. Besides, the affinity in [11], expressed as Kd, was 11.9 nM. The off-rate (koff) in assay [11] came to 0.00188 s⁻¹. The kon in assay [11] is 158000 M⁻¹ s⁻¹.

B10: 33C12huVH2 + huVL3(P07303) (antibody, V domains shown)
VH: B6 VH
VL: B6 VL with N2I, W48L, S57T, V59I, A61D
notes: Humanized 33C12
B10: the 50% effective concentration (EC50) in assay [4] was found to be 0.771 nM; in [5], 1.12 nM; in assay [9], 0.167 µg/mL; in assay [10] it was 0.115 µg/mL. In addition, in assay [11], the Kd turned out to be 16.3 nM. In addition, the koff in [11] stood at 0.00167 s⁻¹. The kon in assay [11] was 102000 M⁻¹ s⁻¹.

B11: 33C12huVH3 + huVL1(P07300) (antibody, V domains shown)
VH: B6 VH with P61A, T78S, S84N
VL: B6 VL with L21M, F72Y, L79V
notes: Humanized 33C12
On to B11, for which the EC50 in assay [4] turned out to be 1.08 nM; in assay [5], 1.44 nM; in assay [9] it was 0.214 µg/mL; in assay [10] it was 0.161 µg/mL. In assay [11], this molecule returned a Kd of 12.7 nM. In assay [11], this molecule came in with a koff of 0.00223 s⁻¹. This molecule had a kon in assay [11] of 175000 M⁻¹ s⁻¹.

B12: 33C12huVH2 + huVL1(P07299) (antibody, V domains shown)
VH: B6 VH
VL: B6 VL with L21M, F72Y, L79V
notes: Humanized 33C12
As for B12, the EC50 worked out at 1.46 nM in assay [4], 2.27 nM in assay [5], 0.34 µg/mL in assay [9] and 0.218 µg/mL in assay [10]. The molecule further returned a Kd in [11] of 15.1 nM. This molecule registered a koff in assay [11] of 0.0013 s⁻¹. This molecule came in with a kon in assay [11] of 86100 M⁻¹ s⁻¹.

The record behind these values is patent US20240392024A1 (SHANGHAI CELGEN BIO PHARMACEUTICAL, published 2024).
